Assay results reported in patent US20170058297A1.
Numbering of substitutions follows the chain as printed. Names and notes keep the numbering of the source.

Tests used:
[1] = target: wild-type Cre recombinase (P1 Bacteriophage) (UniProt P06956); test: cell-based or functional assay
Cre-B2 = target: T1, Cre-B2
T1 chain: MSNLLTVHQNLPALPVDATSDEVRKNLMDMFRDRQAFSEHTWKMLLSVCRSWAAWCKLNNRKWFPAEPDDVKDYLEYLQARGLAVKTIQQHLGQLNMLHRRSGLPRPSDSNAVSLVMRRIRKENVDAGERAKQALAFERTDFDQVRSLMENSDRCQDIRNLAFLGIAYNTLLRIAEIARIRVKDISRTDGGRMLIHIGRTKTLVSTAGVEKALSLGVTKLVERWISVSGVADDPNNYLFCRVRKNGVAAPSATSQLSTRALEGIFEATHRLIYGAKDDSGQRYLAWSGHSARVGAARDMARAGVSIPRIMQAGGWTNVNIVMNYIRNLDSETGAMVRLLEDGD

[2] = target: Cre-B2 (P1 Bacteriophage) (UniProt P06956); test: cell-based or functional assay
[3] = target: Cre-B3 (P1 Bacteriophage) (UniProt P06956); test: cell-based or functional assay
[4] = target: Cre-A3 (P1 Bacteriophage) (UniProt P06956); test: cell-based or functional assay
[5] = target: Cre-A2 (P1 Bacteriophage) (UniProt P06956); test: cell-based or functional assay
[6] = target: Cre-B1 (P1 Bacteriophage) (UniProt P06956); test: cell-based or functional assay
Cre-E123LE-R337E = target: T2, Cre-E123LE-R337E
T2 chain: T1 chain with D69E, K72R, E76L, E123L, R308E, R337E

Molecule: wild-type Cre recombinase (from UniProt P06956 1-343) (enzyme)
- RFP positive cells of 7000 sorted, Ai14 mouse ES reporter cells, promoter hbb + cmv, replicate 1 [1]: 3910 cells
- RFP positive cells of 7000 sorted, Ai14 mouse ES reporter cells, promoter hbb + cmv, replicate 2 [1]: 4220 cells
- RFP positive cells of 7000 sorted, Ai14 mouse ES reporter cells, promoter hbb + cmv, replicate 3 [1]: 4310 cells
- RFP positive cells of 7000 sorted, Ai14 mouse ES reporter cells, promoter hbb + sp1, replicate 1 [1]: 3820 cells
- RFP positive cells of 7000 sorted, Ai14 mouse ES reporter cells, promoter hbb + sp1, replicate 2 [1]: 3800 cells
- RFP positive cells of 7000 sorted, Ai14 mouse ES reporter cells, promoter hbb + sp1, replicate 3 [1]: 4020 cells
- RFP positive cells of 7000 sorted, Ai14 mouse ES reporter cells, promoter hbb, replicate 1 [1]: 372 cells
- RFP positive cells of 7000 sorted, Ai14 mouse ES reporter cells, promoter hbb, replicate 2 [1]: 391 cells
- RFP positive cells of 7000 sorted, Ai14 mouse ES reporter cells, promoter hbb, replicate 3 [1]: 408 cells

B1: Cre-A3 (protein)
chain: MSNLLTVHQNLPALPVDATSDEVRRNLMRMFELRRAFSEHTWKMLLSVCRSWAAWCKLNNRKWFPAEPEDVRDYLLYLQARGLAVKTIQQHLGQLNMLHRRSGLPRPSDSNAVSLVMRRIRKLNVDAGERAKQALAFERTDFDQVRSLMENSDRCQDIRNLAFLGIAYNTLLRIAEIARIRVKDISRTDGGRMLIHIGRTKTLVSTAGVEKALSLGVTKLVERWISVSGVADDPNNYLFCRVRKNGVAAPSATSQLSTRALEGIFEATHRLIYGAKDDSGQRYLAWSGHSARVGAARDMARAGVSIPEIMQAGGWTNVNIVMNYIRNLDSETGAMVELLEDGD
- recombinase activity in vitro (loxP excision, gel): This mutation successfully disrupted formation of Cre-A2 homotetramers
- recombinase activity in vitro on six loxP/M7 hybrid substrates (gel) (Cre-B2-C2#4): In vitro assays confirmed that the heterotetrameric Cre is more specific in recombining different arrangement of loxP/M7 sites
- recombinase activity in vitro (loxP excision, gel) (Cre-B2): preserving activity in the Cre-A3+Cre-B2 heterotetramer
- RFP positive cells of 7000 sorted, Ai14 mouse ES reporter cells, promoter hbb + cmv, replicate 1 [2]: 1600 cells
- RFP positive cells of 7000 sorted, Ai14 mouse ES reporter cells, promoter hbb + cmv, replicate 2 [2]: 1650 cells
- RFP positive cells of 7000 sorted, Ai14 mouse ES reporter cells, promoter hbb + cmv, replicate 3 [2]: 1700 cells
- RFP positive cells of 7000 sorted, Ai14 mouse ES reporter cells, promoter hbb + sp1, replicate 1 [2]: 1500 cells
- RFP positive cells of 7000 sorted, Ai14 mouse ES reporter cells, promoter hbb + sp1, replicate 2 [2]: 1530 cells
- RFP positive cells of 7000 sorted, Ai14 mouse ES reporter cells, promoter hbb + sp1, replicate 3 [2]: 1610 cells
- RFP positive cells of 7000 sorted, Ai14 mouse ES reporter cells, promoter hbb, replicate 1 [2]: 256 cells
- RFP positive cells of 7000 sorted, Ai14 mouse ES reporter cells, promoter hbb, replicate 2 [2]: 233 cells
- RFP positive cells of 7000 sorted, Ai14 mouse ES reporter cells, promoter hbb, replicate 3 [2]: 284 cells
- recombinase activity in mouse ES reporter cells, relative to wild type Cre (% of wild type Cre activity) [2]: 40
- RFP positive cells of 7000 sorted, Ai14 mouse ES reporter cells, promoter hbb + cmv, replicate 1 [3]: 1 cells
- RFP positive cells of 7000 sorted, Ai14 mouse ES reporter cells, promoter hbb + cmv, replicate 2 [3]: 2 cells
- RFP positive cells of 7000 sorted, Ai14 mouse ES reporter cells, promoter hbb + cmv, replicate 3 [3]: 1 cells
- RFP positive cells of 7000 sorted, Ai14 mouse ES reporter cells, promoter hbb + sp1, replicate 1 [3]: 1 cells
- RFP positive cells of 7000 sorted, Ai14 mouse ES reporter cells, promoter hbb + sp1, replicate 2 [3]: 1 cells
- RFP positive cells of 7000 sorted, Ai14 mouse ES reporter cells, promoter hbb + sp1, replicate 3 [3]: 2 cells
- RFP positive cells of 7000 sorted, Ai14 mouse ES reporter cells, promoter hbb, replicate 1 [3]: 0 cells
- RFP positive cells of 7000 sorted, Ai14 mouse ES reporter cells, promoter hbb, replicate 2 [3]: 1 cells
- RFP positive cells of 7000 sorted, Ai14 mouse ES reporter cells, promoter hbb, replicate 3 [3]: 0 cells
- RFP positive cells of 7000 sorted, Ai14 mouse ES reporter cells, promoter hbb + cmv, replicate 1 [4]: 0 cells
- RFP positive cells of 7000 sorted, Ai14 mouse ES reporter cells, promoter hbb + cmv, replicate 2 [4]: 1 cells
- RFP positive cells of 7000 sorted, Ai14 mouse ES reporter cells, promoter hbb + cmv, replicate 3 [4]: 1 cells
- RFP positive cells of 7000 sorted, Ai14 mouse ES reporter cells, promoter hbb + sp1, replicate 1 [4]: 1 cells
- RFP positive cells of 7000 sorted, Ai14 mouse ES reporter cells, promoter hbb + sp1, replicate 2 [4]: 0 cells
- RFP positive cells of 7000 sorted, Ai14 mouse ES reporter cells, promoter hbb + sp1, replicate 3 [4]: 0 cells
- RFP positive cells of 7000 sorted, Ai14 mouse ES reporter cells, promoter hbb, replicate 1 [4]: 0 cells
- RFP positive cells of 7000 sorted, Ai14 mouse ES reporter cells, promoter hbb, replicate 2 [4]: 0 cells
- RFP positive cells of 7000 sorted, Ai14 mouse ES reporter cells, promoter hbb, replicate 3 [4]: 1 cells

B2: Cre-A2 (protein)
chain: B1 chain with L123E
- recombinase activity in vitro (loxP excision, gel): while its activity is reduced relative to Cre-A1, the Cre-A2 monomer was still capable of forming a functional homotetrameric complex
- recombinase activity in vitro (loxP excision, gel) (Cre-B2): the Cre-A2+Cre-B2 combination exhibited strong recombinase activity
- RFP positive cells of 7000 sorted, Ai14 mouse ES reporter cells, promoter hbb + cmv, replicate 1 [2]: 3180 cells
- RFP positive cells of 7000 sorted, Ai14 mouse ES reporter cells, promoter hbb + cmv, replicate 2 [2]: 3410 cells
- RFP positive cells of 7000 sorted, Ai14 mouse ES reporter cells, promoter hbb + cmv, replicate 3 [2]: 3700 cells
- RFP positive cells of 7000 sorted, Ai14 mouse ES reporter cells, promoter hbb + sp1, replicate 1 [2]: 3220 cells
- RFP positive cells of 7000 sorted, Ai14 mouse ES reporter cells, promoter hbb + sp1, replicate 2 [2]: 3340 cells
- RFP positive cells of 7000 sorted, Ai14 mouse ES reporter cells, promoter hbb + sp1, replicate 3 [2]: 3590 cells
- RFP positive cells of 7000 sorted, Ai14 mouse ES reporter cells, promoter hbb, replicate 1 [2]: 573 cells
- RFP positive cells of 7000 sorted, Ai14 mouse ES reporter cells, promoter hbb, replicate 2 [2]: 528 cells
- RFP positive cells of 7000 sorted, Ai14 mouse ES reporter cells, promoter hbb, replicate 3 [2]: 607 cells
- RFP positive cells of 7000 sorted, Ai14 mouse ES reporter cells, promoter hbb + cmv, replicate 1 [5]: 1130 cells
- RFP positive cells of 7000 sorted, Ai14 mouse ES reporter cells, promoter hbb + cmv, replicate 2 [5]: 1120 cells
- RFP positive cells of 7000 sorted, Ai14 mouse ES reporter cells, promoter hbb + cmv, replicate 3 [5]: 1050 cells
- RFP positive cells of 7000 sorted, Ai14 mouse ES reporter cells, promoter hbb + sp1, replicate 1 [5]: 1050 cells
- RFP positive cells of 7000 sorted, Ai14 mouse ES reporter cells, promoter hbb + sp1, replicate 2 [5]: 1000 cells
- RFP positive cells of 7000 sorted, Ai14 mouse ES reporter cells, promoter hbb + sp1, replicate 3 [5]: 1120 cells
- RFP positive cells of 7000 sorted, Ai14 mouse ES reporter cells, promoter hbb, replicate 1 [5]: 47 cells
- RFP positive cells of 7000 sorted, Ai14 mouse ES reporter cells, promoter hbb, replicate 2 [5]: 52 cells
- RFP positive cells of 7000 sorted, Ai14 mouse ES reporter cells, promoter hbb, replicate 3 [5]: 41 cells

B3: Cre mutant with only the round 2 mutation E308R (protein)
chain: T1 chain with D69E, K72R, E76L
- recombinase activity in vitro: The salt-bridge swap from round 2 alone yields two Cre mutants with reduced but clear activity (data not shown)

B4: Cre-B1 (protein)
chain: T1 chain with R308E
- recombinase activity in vitro (loxP excision, gel): All Cre-B mutants are inactive in isolation.
- RFP positive cells of 7000 sorted, Ai14 mouse ES reporter cells, promoter hbb + cmv, replicate 1 [6]: 1240 cells
- RFP positive cells of 7000 sorted, Ai14 mouse ES reporter cells, promoter hbb + cmv, replicate 2 [6]: 1260 cells
- RFP positive cells of 7000 sorted, Ai14 mouse ES reporter cells, promoter hbb + cmv, replicate 3 [6]: 1120 cells
- RFP positive cells of 7000 sorted, Ai14 mouse ES reporter cells, promoter hbb + sp1, replicate 1 [6]: 1150 cells
- RFP positive cells of 7000 sorted, Ai14 mouse ES reporter cells, promoter hbb + sp1, replicate 2 [6]: 1080 cells
- RFP positive cells of 7000 sorted, Ai14 mouse ES reporter cells, promoter hbb + sp1, replicate 3 [6]: 1200 cells
- RFP positive cells of 7000 sorted, Ai14 mouse ES reporter cells, promoter hbb, replicate 1 [6]: 97 cells
- RFP positive cells of 7000 sorted, Ai14 mouse ES reporter cells, promoter hbb, replicate 2 [6]: 102 cells
- RFP positive cells of 7000 sorted, Ai14 mouse ES reporter cells, promoter hbb, replicate 3 [6]: 85 cells

B5: Cre-E123L-E308R (protein)
chain: T1 chain with D69E, K72R, E76L, E123L
- recombinase activity in vitro (loxP excision, gel) (Cre-E123LE-R337E): In vitro assays indicated that these mutants do not form an obligate heterotetrameric pair

B6: Cre mutant with only the round 2 mutation R337E (protein)
chain: T1 chain with D69E, K72R, E76L, R308E, R337E
- recombinase activity in vitro: The salt-bridge swap from round 2 alone yields two Cre mutants with reduced but clear activity (data not shown)

B7: Cre-B2 (protein)
chain: T1 chain
- recombinase activity in vitro (loxP excision, gel): All Cre-B mutants are inactive in isolation.
- RFP positive cells of 7000 sorted, Ai14 mouse ES reporter cells, promoter hbb + cmv, replicate 1 [2]: 2 cells
- RFP positive cells of 7000 sorted, Ai14 mouse ES reporter cells, promoter hbb + cmv, replicate 2 [2]: 2 cells
- RFP positive cells of 7000 sorted, Ai14 mouse ES reporter cells, promoter hbb + cmv, replicate 3 [2]: 4 cells
- RFP positive cells of 7000 sorted, Ai14 mouse ES reporter cells, promoter hbb + sp1, replicate 1 [2]: 2 cells
- RFP positive cells of 7000 sorted, Ai14 mouse ES reporter cells, promoter hbb + sp1, replicate 2 [2]: 1 cells
- RFP positive cells of 7000 sorted, Ai14 mouse ES reporter cells, promoter hbb + sp1, replicate 3 [2]: 3 cells
- RFP positive cells of 7000 sorted, Ai14 mouse ES reporter cells, promoter hbb, replicate 1 [2]: 0 cells
- RFP positive cells of 7000 sorted, Ai14 mouse ES reporter cells, promoter hbb, replicate 2 [2]: 0 cells
- RFP positive cells of 7000 sorted, Ai14 mouse ES reporter cells, promoter hbb, replicate 3 [2]: 1 cells
